In article doi:10.1101/2024.10.21.619419 (bioRxiv, 2024):

Target: the molecule itself
Assay: SEC

B1: Bxb1 residues 2-500 (enzyme, Mycobacteriophage Bxb1, UniProt Q9B086 2-500, looked up)
chain: RALVVIRLSRVTDATTSPERQLESCQQLCAQRGWDVVGVAEDLDVSGAVDPFDRKRRPNLARWLAFEEQPFDVIVAYRVDRLTRSIRHLQQLVHWAEDHKKLVVSATEAHFDTTTPFAAVVIALMGTVAQMELEAIKERNRSAAHFNIRAGKYRGSLPPWGYLPTRVDGEWRLVPDPVQRERILEVYHRVVDNHEPLHLVAHDLNRRGVLSPKDYFAQLQGREPQGREWSATALKRSMISEAMLGYATLNGKTVRDDDGAPLVRAEPILTREQLEALRAELVKTSRAKPAVSTPSLLLRVLFCAVCGEPAYKFAGGGRKHPRYRCRSMGFPKHCGNGTVAMAEWDAFCEEQVLDLLGDAERLEKVWVAGSDSAVELAEVNAELVDLTSLIGSPAYRAGSPQREALDARIAALAARQEELEGLEARPSGWEWRETGQRFGDWWREQDTAAKNTWLRSMNVRLTFDVRGGLTRTIDFGDLQEYEQHLRLGSVVERLHTGMS
stoichiometry N: 2
